Article PMC5548745, “Agonist-induced dimer dissociation as a macromolecular step in G protein-coupled receptor signaling” (Nature Communications, 2017)

What was measured:
FZD6-TM4 = biological target: T1, FZD6-TM4 (Homo sapiens, UniProt O60353); experiment: isothermal titration calorimetry of TM peptides; type: binding; conditions: 820 µM TM5 or TM5 mut into 165 µM TM4; 0.5% DDM; 20 °C; one set of sites
T1 construct: purchased Pepscan Therapeutics (Lelystad, Netherlands); host or cells: chemical synthesis (Fmoc solid phase)
T1 sequence (O60353 with tags, fused parts or gaps limits assumed): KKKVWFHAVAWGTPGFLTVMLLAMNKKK
Experimental: (§1) CD spectra were recorded using a J-810 spectropolarimeter (Jasco, Easton, MD, USA) in a 0.1 cm quartz cuvette. Far-UV CD spectra were collected over 190–260 nm. ITC measurements were carried out at 20 °C on an ITC (VP–ITC 200, MicroCal). 820 µM FZD6 TM5 and 165 µM FZD6 TM4 were dissolved in 0.5% DDM in water. 2 µl of TM5 peptide were injected into 260 µl TM4 during each titration. The ITC data were analyzed with the Origin 7.0 software.

[1] = circular dichroism of synthetic TM peptides; type: physicochemical; conditions: CD; triple distilled water with 0, 0.01, 0.1, 0.5% DDM
Experimental: as §1
Supplementary Figure 5: Circular dichroism (CD) and isothermal titration calorimetry (ITC) experiments for structural analysis of synthetic peptides resembling TM1, 4, 5 and mutant TM5 and of peptide-peptide interactions, related to Figure 3. Synthetic peptides (for sequence see Supplementary Fig. 9) resembling TM1 (a), 4 (b), 5 (c) and mutant TM5 (d) were used for CD experiments in triple distilled water with increasing DDM concentrations (0% DDM – black, 0.01% DDM – blue, 0.1% DDM – green and 0.5% DDM – red). (c)TM5 is unstructured in TDW and begins to gain structure at 0.1% DDM. It forms a clear α-helical structure in 0.5% DDM. The triple mutated TM5 (d) forms an α-helix in a much lower DDM concentration (0.01% DDM). […]

TM4 peptide of FZD6 = experiment: analytical size-exclusion chromatography of TM peptides; type: binding, human; conditions: TDW + 0.01% DDM; 500 µM each peptide; Superdex 30; 0.8 ml min^−1; room temperature; 215 nm; 2 h incubation
Experimental: Analytical SEC was performed on an ÄKTA Explorer with a Superdex 30 analytical column (GE Healthcare) equilibrated with TDW + 0.01% DDM. Peptides were eluted with a flow rate of 0.8 ml min^−1 at room temperature. Elution profile was monitored by UV absorbance at 215 nm. For the binding experiments, the peptides were incubated together in TDW + 0.01% DDM at room temperature for 2 h.

V5-FZD6-mCherry = experiment: dcFRAP of V5-FZD6-mCherry/CB1-GFP (negative control); type: cell-based, human; conditions: HEK293
Experimental: For dual color FRAP experiments, cells grown in four compartment 35 mm glass bottom dishes were washed three times with BE buffer[19] (150 mM NaCl, 2.5 mM KCl, 10 mM HEPES, 12 mM glucose, 0.5 mM CaCl2, and 0.5 mM MgCl2). Then, the cells were incubated at RT for 30 min with biotin-conjugated goat polyclonal anti-V5 antibody (Bethyl) diluted 1:100 in BE buffer supplemented with 2.5% bovine serum albumin. For antibody-mediated cross-linking, avidin was added and incubated for 15 min and washed two times with BE buffer before the experiments were performed. In Fig. 4, dcFRAP experiments are presented that employ chemical surface crosslinking to visualize assembly of FZD6 with DVL or heterotrimeric G proteins according to previously published protocols. Live cell imaging experiments were carried out using a Zeiss 710 laser scanning microscope. Images were acquired using a 40×, 1.2 NA C-Apochromat objective and the 488 nm and the 561 nm laser lines were used to excite GFP and mCherry fluorophores, respectively. Photobleaching was performed by 100% laser illumination of a 1.80 × 1.80 µm area placed over the cell plasma membrane. Fluorescence was measured pre- and post-bleach using low-intensity illumination for a total time period of 100 s. Average pixel intensity was measured using the ZEN2013 software, corrected for background fluctuations and bleaching artifacts and normalized to pre-bleached intensity. The recovered mobile fraction (F m) was calculated as follows: F m = (I P–I 0)/(I I–I 0), where I I is the initial intensity measured prior to bleaching, I 0 is the immediate fluorescence intensity post-bleaching and I P is intensity value post-bleaching. The mobile fraction was defined by the average of the fluorescence recovery assessed between time 85–101 s (including pre-bleach measurements). We excluded experiments in which the extracellularly tagged receptors were not sufficiently immobilized after the crosslinking procedure (cutoff at 40% crosslinking-induced reduction in mobile fraction). […]

FZD6–FZD6 dimer = experiment: dcFRAP of V5-FZD6-mCherry/FZD6-GFP (FZD6 dimerization); type: cell-based, human; conditions: HEK293, 85–101 s, mean ± s.e.m.
Experimental: For dual color FRAP experiments, cells grown in four compartment 35 mm glass bottom dishes were washed three times with BE buffer[19] (150 mM NaCl, 2.5 mM KCl, 10 mM HEPES, 12 mM glucose, 0.5 mM CaCl2, and 0.5 mM MgCl2). Then, the cells were incubated at RT for 30 min with biotin-conjugated goat polyclonal anti-V5 antibody (Bethyl) diluted 1:100 in BE buffer supplemented with 2.5% bovine serum albumin. For antibody-mediated cross-linking, avidin was added and incubated for 15 min and washed two times with BE buffer before the experiments were performed. In Fig. 4, dcFRAP experiments are presented that employ chemical surface crosslinking to visualize assembly of FZD6 with DVL or heterotrimeric G proteins according to previously published protocols. Live cell imaging experiments were carried out using a Zeiss 710 laser scanning microscope. Images were acquired using a 40×, 1.2 NA C-Apochromat objective and the 488 nm and the 561 nm laser lines were used to excite GFP and mCherry fluorophores, respectively. Photobleaching was performed by 100% laser illumination of a 1.80 × 1.80 µm area placed over the cell plasma membrane. Fluorescence was measured pre- and post-bleach using low-intensity illumination for a total time period of 100 s. Average pixel intensity was measured using the ZEN2013 software, corrected for background fluctuations and bleaching artifacts and normalized to pre-bleached intensity. The recovered mobile fraction (F m) was calculated as follows: F m = (I P–I 0)/(I I–I 0), where I I is the initial intensity measured prior to bleaching, I 0 is the immediate fluorescence intensity post-bleaching and I P is intensity value post-bleaching. The mobile fraction was defined by the average of the fluorescence recovery assessed between time 85–101 s (including pre-bleach measurements). We excluded experiments in which the extracellularly tagged receptors were not sufficiently immobilized after the crosslinking procedure (cutoff at 40% crosslinking-induced reduction in mobile fraction). Kinetic determination of mobile fractions of crosslinked V5-FZD6-mCherry and FZD6-GFP with WNT stimulation over time were performed in one cell culture well. Measurements for each time point were performed on separate cells.
Statistical and graphical analysis was performed using Graph Pad Prism 5 software. Data were analyzed by two-tailed t-test or one-way ANOVA with Fisher’s least significant difference post hoc analysis. Curve fitting of FRAP data was done with a two-phase association nonlinear function using the least square fit. Data for receptor titration in the presence of C59 and output to P-ERK1/2 in Fig. 6h was fit to a linear regression model. All experiments were repeated at least three times in independent experiments (not representing technical replicates). For single cell analysis (dcFRAP), the number of the individual ROIs obtained from several cells in at least three independent experiments is provided in the figure legends. Data from individual ROIs are summarized for data presentation providing the sum of independent observations. Significance levels are given as: *P < 0.05; **P < 0.01; ***P < 0.001. Data in FRAP curves and bar graphs (FRAP) are presented as mean ± s.e.m.

[2] = test system: ERK1/2 phosphorylation in HEK293 cells; experiment: P-ERK1/2 immunoblot, HEK293 cells expressing SNAP-FZD6 constructs; type: cell-based
Experimental: Fig. 6 Relationship between FZD6 dimerization and phosphorylation of ERK1/2. a Mouse lung epithelial (MLE-12) cells were stimulated with WNT-5A (300 ng ml^−1) for 0, 2.5, 5, 10, 20 min. Cell lysates were analyzed for P-ERK1/2 and β-actin by immunoblotting. Additional information in Supplementary Fig. 6. b Bar graph summarizes three independent experiments. Densitometry data were normalized to the unstimulated control. […] Additional information in Supplementary Fig. 6. SNAP-FZD6 wt- and SNAP-FZD6 dimer mutant-induced ERK1/2 phosphorylation in the absence e and presence f of the porcupine inhibitor C59 (5 µM, overnight) were probed by immunoblotting for the SNAP-tag, P-ERK1/2, total ERK1/2 and β-actin. g The bar graph summarizes densitometry data of P-ERK1/2 normalized to total ERK1/2 from 6 different experiments. P = 0.0005; F (2, 15) = 13.08. ***P < 0.001. Empty vector transfection was used as mock. h Increasing amounts of plasmid of either SNAP-FZD6 wt or SNAP-FZD6 dimer mutant in the presence of C59 show a dose-dependent increase in P-ERK1/2 only with the dimer mutant. Data from three independent experiments for the dimer mutant were fit to a linear least-squares model (slope = 0.40 ± 0.10; R ^2 = 0.5943) and this line is shown superimposed. […] This dissociation-dependent activation can be evoked by agonist (WNT^high) or mutation of the dimer interface (symbolized by red stars). WNT^low conditions can be achieved in the presence of C59, which reduces FZD6 wt signaling
MLE-12 or HEK293 cells (ATCC) were plated in a 24- or 48-well plate at a density of 100,000 or 50,000 cells/well, respectively. After 24 h, cells were transfected using Lipofectamine 2000 according to the manufacturer’s instructions. Cells were stimulated (24 h post-transfection) with 300 ng ml^−1 recombinant carrier-free WNT-5A (CF WNT-5A; R&D Systems). Stimulation was stopped by the addition of lysis buffer (1% NP-40, 150 mM NaCl, 50 mM Tris/HCl pH 8). Lysates were sonicated and analyzed by 7.5 or 10% Mini-PROTEAN TGX precast polyacrylamide gels (Bio-Rad) and transferred to PVDF membranes using the Trans-Blot Turbo system (Bio-Rad). After blocking with 5% milk or BSA in TBS-T, membranes were incubated with primary antibodies in blocking buffer: mouse anti-β-actin (1:30,000; Sigma #A5441), rabbit anti-FZD6 (1:1000; NovusBio #NBP1-00830), rabbit anti-Phospho-p44/42 MAPK (ERK1/2) (Thr202/Tyr204) (1:1000; Cell Signaling Technology #9101 L), rabbit anti-p44/42 MAPK (ERK1/2) (1:1000; Cell Signaling Technology #9102), rabbit anti-Phospho-C-RAF (Ser338) (1:1000; Cell Signaling Technology #56A6), rabbit anti-SNAP tag (1:1000, New England Biolabs #P9310S), and rabbit anti-HA (1:4000, abcam #ab9110) overnight at 4 °C. Proteins were detected with horseradish peroxidase-conjugated secondary antibodies (goat anti-rabbit and goat anti-mouse (Pierce)) and Clarity Western ECL Blotting Substrate (Bio-Rad). All uncropped immunoblots can be found in the Supplementary Information.

Molecule: WKKLAASAAFVLLPLCLCVFVGLSLLLAGIISKKK [TM5 mut, TM5 peptide with D365A, R368A, Y369A mutations]
- ITC affinity (dissociation constant, K D) to TM4 (FZD6-TM4): does not interact
- DDM concentration at which α-helix forms [1]: 0.01%
- SEC elution volume in combination with TM4 (TM4 peptide of FZD6): did not result in a shift to a higher elution volume

B1: CB1-GFP: GFP-tagged cannabinoid CB1 receptor, negative control (protein)
chain: MKSILDGLADTTFRTITTDLLYVGSNDIQYEDIKGDMASKLGYFPQKFPLTSFRGSPFQEKMTAGDNSPLVPAGDTTNITEFYNKSLSSFKENEENIQCGENFMDMECFMILNPSQQLAIAVLSLTLGTFTVLENLLVLCVILHSRSLRCRPSYHFIGSLAVADLLGSVIFVYSFVDFHVFHRKDSPNVFLFKLGGVTASFTASVGSLFLTAIDRYISIHRPLAYKRIVTRPKAVVAFCLMWTIAIVIAVLPLLGWNCKKLQSVCSDIFPLIDETYLMFWIGVTSVLLLFIVYAYMYILWKAHSHAVRMIQRGTQKSIIIHTSEDGKVQVTRPDQARMDIRLAKTLVLILVVLIICWGPLLAIMVYDVFGKMNKLIKTVFAFCSMLCLLNSTVNPIIYALRSKDLRHAFRSMFPSCEGTAQPLDNSMGDSDCLHKHANNTASMHRAAESCIKSTVKIAKVTMSVSTDTSAEAL
modifications: left off: GFP, end not stated, kept
notes: GFP-tagged cannabinoid CB1 receptor, negative control
- CL-induced reduction in mobile fraction of CB1-GFP (V5-FZD6-mCherry; antibody-treated, co-expressing V5-FZD6-mCherry): did not exhibit a reduction in the mobile fraction of CB1-GFP upon crosslinking
- mobile fraction, CB1 experiment after CL (V5-FZD6-mCherry; with crosslinking, n=34): 77,12 ± 2,601%
- mobile fraction, CB1 experiment before CL (V5-FZD6-mCherry; without crosslinking, n=29): 78,48 ± 2,373%

B2: FZD6 wt: wild-type FZD6 receptor construct (SNAP-tagged in ERK assays; GFP-tagged in b181) (protein)
chain: HSLFTCEPITVPRCMKMAYNMTFFPNLMGHYDQSIAAVEMEHFLPLANLECSPNIETFLCKAFVPTCIEQIHVVPPCRKLCEKVYSDCKKLIDTFGIRWPEELECDRLQYCDETVPVTFDPHTEFLGPQKKTEQVQRDIGFWCPRHLKTSGGQGYKFLGIDQCAPPCPNMYFKSDELEFAKSFIGTVSIFCLCATLFTFLTFLIDVRRFRYPERPIIYYSVCYSIVSLMYFIGFLLGDSTACNKADEKLELGDTVVLGSQNKACTVLFMLLYFFTMAGTVWWVILTITWFLAAGRKWSCEAIEQKAVWFHAVAWGTPGFLTVMLLAMNKVEGDNISGVCFVGLYDLDASRYFVLLPLCLCVFVGLSLLLAGIISLNHVRQVIQHDGRNQEKLKKFMIRIGVFSGLYLVPLVTLLGCYVYEQVNRITWEITWVSDHCRQYHIPCPYQAKAKARPELALFMIKYLMTLIVGISAVFWVGSKKTCTEWAGFFKRNRKRDPISESRRVLQESCEFFLKHNSKVKHKKKHYKPSSHKLKVISKSMGTSTGATANHGTSAVAITSHDYLGQETLTEIQTSPETSMREVKADGASTPRLREQDCGEPASPAASISRLSGEQVDGKGQAGSVSESARSEGRISPKSDITDTGLAQSNNLQVPSSSEPSSLKGSTSLLVHPVSGVRKEQGGGCHSDT
modifications: left off: V5 (on the crosslinked copy), N-terminal, kept | mCherry (on the crosslinked copy), C-terminal, kept | GFP (on the other, mobile copy), C-terminal, kept
- mobile fraction of FZD6-GFP before CL (FZD6–FZD6 dimer; basal, without biotinylated anti-V5/avidin crosslinking, N = 21 ROIs): 80,78 ± 2,053%
- mobile fraction of FZD6-GFP after CL (FZD6–FZD6 dimer; with biotinylated anti-V5/avidin crosslinking, N = 31 ROIs): 70,69 ± 2,416%
- P-ERK1/2 induction in presence of C59 ([2]; HEK293, C59 5 µM overnight): reduced to basal
- effect of overexpression on basal P-ERK1/2 without C59 ([2]; serum-starved HEK293, no C59): increased basal P-ERK1/2
